This test has as its target T1, purified recombinant HIS epitope-tagged NOTCH3 extracellular domain (human, UniProt Q9UM47 40-1643, glycosylated).
T1 construct: NOTCH3, human, complete extracellular domain; written as one chain so that the self-association rows stand for chain with chain; also called N3 ECD; NOTCH3-ECD protein; source: PEC.3.30 (modified Per.E2A) cells, purified from supernatant (HisTrap HP, Superdex 200); not shown: HIS, C-terminal, kept
The test is described as follows: SPR; Biacore T200; NOTCH3-ECD immobilized on NTA Series S chip by nickel-NTA capture-coupling (about 3500 RU); peptides flowed at 30 μL/min; 50 mM HEPES, 150 mM NaCl, 25 °C; steady-state affinity model. Conditions: both partners purified. A general note: Surface plasmon resonance follows binding to a sensor surface in real time, without labels.

T1 sequence (Q9UM47 40-1643): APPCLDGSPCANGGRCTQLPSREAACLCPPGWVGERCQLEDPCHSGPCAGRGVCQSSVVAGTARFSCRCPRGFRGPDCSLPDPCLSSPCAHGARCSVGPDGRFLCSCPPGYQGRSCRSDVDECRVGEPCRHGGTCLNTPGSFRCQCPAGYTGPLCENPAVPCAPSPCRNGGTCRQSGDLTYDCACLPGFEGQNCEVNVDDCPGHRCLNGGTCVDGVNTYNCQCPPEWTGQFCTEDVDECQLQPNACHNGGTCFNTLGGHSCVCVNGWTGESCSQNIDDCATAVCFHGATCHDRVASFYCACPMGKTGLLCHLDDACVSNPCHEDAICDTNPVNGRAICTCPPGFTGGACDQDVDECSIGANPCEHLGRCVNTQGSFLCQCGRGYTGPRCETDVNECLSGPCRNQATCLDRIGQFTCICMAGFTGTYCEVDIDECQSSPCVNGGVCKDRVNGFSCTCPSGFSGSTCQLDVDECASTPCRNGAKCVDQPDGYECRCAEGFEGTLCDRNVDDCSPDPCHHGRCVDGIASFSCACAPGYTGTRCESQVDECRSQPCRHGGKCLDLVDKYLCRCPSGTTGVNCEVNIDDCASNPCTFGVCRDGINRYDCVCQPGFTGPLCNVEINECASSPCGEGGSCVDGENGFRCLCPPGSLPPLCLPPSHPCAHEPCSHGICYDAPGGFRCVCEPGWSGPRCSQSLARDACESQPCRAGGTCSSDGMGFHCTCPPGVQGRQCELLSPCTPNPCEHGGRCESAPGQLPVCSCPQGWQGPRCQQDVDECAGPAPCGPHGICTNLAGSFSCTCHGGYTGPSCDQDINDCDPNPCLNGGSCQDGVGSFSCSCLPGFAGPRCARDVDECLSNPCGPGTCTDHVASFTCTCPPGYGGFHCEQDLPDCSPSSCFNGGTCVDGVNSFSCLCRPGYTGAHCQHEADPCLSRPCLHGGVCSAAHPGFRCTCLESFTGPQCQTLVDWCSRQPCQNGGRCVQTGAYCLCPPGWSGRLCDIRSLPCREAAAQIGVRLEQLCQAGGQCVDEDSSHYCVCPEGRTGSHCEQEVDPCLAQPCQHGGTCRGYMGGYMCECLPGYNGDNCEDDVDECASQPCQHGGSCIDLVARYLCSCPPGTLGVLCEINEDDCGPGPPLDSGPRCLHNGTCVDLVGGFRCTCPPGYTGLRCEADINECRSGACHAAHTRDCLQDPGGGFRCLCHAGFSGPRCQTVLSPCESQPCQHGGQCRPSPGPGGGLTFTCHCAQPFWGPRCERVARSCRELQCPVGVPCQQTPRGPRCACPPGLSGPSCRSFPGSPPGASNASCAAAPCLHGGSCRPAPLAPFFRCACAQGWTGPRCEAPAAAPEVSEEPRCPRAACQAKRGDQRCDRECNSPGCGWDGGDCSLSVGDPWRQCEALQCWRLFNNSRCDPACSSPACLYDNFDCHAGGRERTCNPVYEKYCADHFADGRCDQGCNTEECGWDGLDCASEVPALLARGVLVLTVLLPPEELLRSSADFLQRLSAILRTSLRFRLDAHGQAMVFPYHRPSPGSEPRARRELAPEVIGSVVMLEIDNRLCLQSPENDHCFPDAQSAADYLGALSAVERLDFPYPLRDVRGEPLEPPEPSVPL

B1: N34 peptide (peptide)
peptide: EKYCADHFADGR
notes: NOTCH3, human, peptide centred on the helix encompassing the core dimerization motif of the NRR; also called N3 peptide
B1: the binding result was “binds”.
